Experimental data taken from US20200109211A1 (ELSALYS BIOTECH, published 2020).

B1: D12 IgG4 S228P/R409K/H310A/H435Q (antibody)
heavy: QVQLVQSGAEVKKPGASVKVSCKASGYTFSDFWMQWIRQAPGQGLEWIGAIYPGDDDARVTQKFRGRATLTADKSTSTAYMELSSLRSEDTAVYYCARRGIAAVVGGFDYWGQGTTLTVSSASTKGPSVFPLAPCSRSTSESTAALGCLVKDYFPEPVTVSWNSGALTSGVHTFPAVLQSSGLYSLSSVVTVPSSSLGTKTYTCNVDHKPSNTKVDKRVESKYGPPCPPCPAPEFLGGPSVFLFPPKPKDTLMISRTPEVTCVVVDVSQEDPEVQFNWYVDGVEVHNAKTKPREEQFNSTYRVVSVLTVLAQDWLNGKEYKCKVSNKGLPSSIEKTISKAKGQPREPQVYTLPPSQEEMTKNQVSLTCLVKGFYPSDIAVEWESNGQPENNYKTTPPVLDSDGSFFLYSKLTVDKSRWQEGNVFSCSVMHEALHNQYTQKSLSLSLG
light: EIVLTQSPATLSLSPGERATLSCRASQSISNHLHWYQQKPGQAPRLLIKYASQSISGIPARFSGSGSGTDFTLTISSLEPEDFAVYFCQQSNSWPLTFGGGTKVEIKRTVAAPSVFIFPPSDEQLKSGTASVVCLLNNFYPREAKVQWKVDNALQSGNSQESVTEQDSKDSTYSLSSTLTLSKADYEKHKVYACEVTHQGLSSPVTKSFNRGEC
notes: also called ELB01104; H7 IgG4 D12 S228P/R409K/H310A/H435Q
B2: FJ1516MP02A12 (H7 VH family 3) Fab clone (Fab, V domains shown)
VH: QVQLVQSGAEVKKPGASVKVSCKASGYTFTDYWMQWIRQAPGQGLEWIGAIYPGDDDAQFTQKFRGRATLTADKSTSTAYMELSSLRSEDTAVYYCARRGIAAVVGGFDYWGQGTTLTVSS
VL: EIVLTQSPATLSLSPGERATLSCRASQSISNHLHWYQQKPGQAPRLLIKYASQSISGIPARFSGSGSGTDFTLTISSLEPEDFAVYFCQQSNSWPLTFGGGTKVEIK
notes: Tested as Fab on phage and as soluble Fab in periplasmic extract
B3: FJ1516MP02D09 (H7 VH family 2) Fab clone (Fab, V domains shown)
VH: QVQLVQSGAEVKKPGASVKVSCKASGYTFSESWMQWIRQAPGQGLEWIGAIYPGDDEARVTQKFRGRATLTADKSTSTAYMELSSLRSEDTAVYYCARRGIAAVVGGFDYWGQGTTLTVSS
VL: EIVLTQSPATLSLSPGERATLSCRASQSISNHLHWYQQKPGQAPRLLIKYASQSISGIPARFSGSGSGTDFTLTISSLEPEDFAVYFCQQSNSWPLTFGGGTKVEIK
notes: as for B2
B4: FJ1516MP02G05 (H7 VH family 4) Fab clone (Fab, V domains shown)
VH: QVQLVQSGAEVKKPGASVKVSCKASGYTFADYWMQWIRQAPGQGLEWIGAIYPGDDDAQYTQKFRGRATLTADKSTSTAYMELSSLRSEDTAVYYCARRGIAAVVGGFDYWGQGTTLTVSS
VL: EIVLTQSPATLSLSPGERATLSCRASQSISNHLHWYQQKPGQAPRLLIKYASQSISGIPARFSGSGSGTDFTLTISSLEPEDFAVYFCQQSNSWPLTFGGGTKVEIK
notes: as for B2

Columns and labels:
[1] = molecular target: T1, recombinant human CD160 protein, soluble form, with a C-terminal tag of 6 histidine residues (R&D SYSTEMS) (human, UniProt O95971 27-159, limits assumed, biotinylated with EZ-Link sulfo-NHS-LC-biotin for BLI and ELISA; not biotinylated when immobilised on the CM5 chip for SPR); experiment: BLI (repeats Table 8)
T1 construct: domain: soluble form; Bought protein; also called hCD160-his; biotinylated CD160
T1 sequence: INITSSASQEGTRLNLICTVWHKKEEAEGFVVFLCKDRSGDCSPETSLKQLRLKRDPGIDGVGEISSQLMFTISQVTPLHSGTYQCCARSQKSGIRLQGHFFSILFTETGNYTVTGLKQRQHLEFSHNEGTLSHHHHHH

[2] = molecular target: T1, recombinant human CD160 protein, …; experiment: SPR (Biacore), design close to Example 2
[3] = molecular target: T2, human CD160 (CD160 GPI isoform) on cells (human, UniProt O95971 25-159, GPI anchor); experiment: flow cytometry, percentage of labelled YT2C2 NK cells, antibody 0.39-50 nM; the text means better binding
T2 construct: whole, on cells; Used for all cells said to carry human CD160: transfected CHO-S and E300 cells and cells that carry it naturally (YT2C2, blood NK, CD8+ T, T CD4, CLL cells); also called hCD160; CHO-S-hCD160 (clone 2G10)
T2 sequence (looked up): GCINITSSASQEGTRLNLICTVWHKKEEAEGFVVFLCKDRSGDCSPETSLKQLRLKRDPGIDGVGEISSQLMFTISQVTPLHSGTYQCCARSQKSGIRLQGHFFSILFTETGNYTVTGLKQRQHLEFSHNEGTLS
Procedure: (§1) The binding capacity of the anti-CD160 H7 antibody and of the H7 D12 variant in the IgG4, Fab and Fab-linker Fab format was evaluated during the labelling of surface CD160 expressed naturally on a clone of NK cell line (YT2C2), by measuring the percentage of cell labelled=percentage of binding (see FIG. 1C). For this, 2×10⁺⁵ YT2C2 cells were labelled with increasing concentration of antibodies (from 50 nM to 0.39 nM) and also with the appropriate control isotype. […] In FIG. 1C, IgG4 variants ELB01103 and ELB01104 bind more efficiently to the YT2C2 cells than the H7 IgG4 ELB01101 (which results in a EC₅₀ increased by a factor of 10 compared with H7 IgG4). This is also true for the Fab-linker-Fab format ELB01132. By contrast Fab format ELB01122 bind less efficiently to the YT2C2 cells than the H7 IgG4 ELB01101 (which results in a EC₅₀ decreased by a factor of 2 compared with H7 IgG4). This is certainly due to the monovalency of the Fab format.

[4] = molecular target: T1, recombinant human CD160 protein, …; experiment: BLI
[5] = molecular target: T1, recombinant human CD160 protein, …; experiment: BLI, biotinylated CD160 at 10 nM on streptavidin sensor, antibody 3.13-100 nM
[6] = molecular target: T2, human CD160 (CD160 GPI isoform) on cells; experiment: flow cytometry, percentage of labelled YT2C2 NK cells (2x10^5 cells), antibody 0.39 to 50 nM [panel C]
Procedure: as §1

[7] = molecular target: T2, human CD160 (CD160 GPI isoform) on cells; experiment: flow cytometry on CHO-hCD160 transfectants
Procedure: The binding capacity of the anti-CD160 H7 antibodies and of the variants (D12 and A09) thereof in the IgG4 and IgG1 format and in the IgG1 E345K format was evaluated during the labelling of surface CD160 expressed in a recombinant line CHO-S-hCD160 (clone 2G10) in comparison with non-transfected CHO-S cells, by measuring the median fluorescence index (MFI) (see FIG. 1). For this, 5×10⁺⁵ 2G10 (CHO-S-CD160) and non-transfected CHO-S cells were labelled with 2 μg of each of these antibodies and also with the appropriate control isotypes. In FIG. 1, all the anti-CD160 tested (regardless of the isotype or the IgG format or the variant) specifically recognize human CD160 expressed recombinantly by the CHO-S cells.
In FIG. 1B, the IgG4 variants bind more efficiently to the CHO-hCD160 transfectants than H7 (which results in a median fluorescence increased by a factor of 2 compared with H7 IgG4 ELB01101 or with H7 IgG4 H310A-H435Q ELB01102), this being even in the presence of the H310A-H435Q mutations.

[8] = molecular target: T2, human CD160 (CD160 GPI isoform) on cells; experiment: phage FACS on CHO cells expressing hCD160
Excerpt: (§2) Thus, phage clones were generated and also made it possible to produce periplasmic extracts of bacteria, containing unpurified soluble Fabs. The individual clones were selected for their binding capacity to the human CD160 protein, by ELISA, and to cells expressing human CD160 by FACS, this being i) either in the form of gene III-Fab fusion proteins expressed at the surface of the filamentous phage or ii) in the form of periplasmic extracts containing fragments of unpurified soluble Fabs. The individual clones (in the form of periplasmic extracts containing fragments of soluble Fabs) were also classified according to their kinetic dissociation constant (kdis).
(§3) From a practical point of view, the binding of the phage to human CD160 was detected using an anti-M13 HRP conjugated antibody. The binding of the phage to the cells expressing CD160 was detected using a mouse anti-M13-biotin antibody followed by Streptavidin-PE.

[9] = molecular target: T1, recombinant human CD160 protein, …; experiment: SPR (Biacore 3000), hCD160 on CM5 chip, periplasmic extract with soluble Fab diluted 1:5
Procedure: The binding capacity of the H7 variants was also tested by surface plasmon resonance (SPR). For this, a Biacore 3000 (GE Healthcare) was used. […] The integrity of the immobilized human CD160 was confirmed using the anti-huCD160 H7 IgG1 antibody. For the kinetic measurements, concentrations in cascade of human ECD160 with two-fold dilutions (0.15 μM-10 μM) were injected, twice, in PBS, with a Biacore P20 buffer at 25° C. and a flow rate of 30 μl/min.
The regeneration conditions were tested and 10 pi of 10 mM NaOH/1M NaCl were injected for the regeneration between the sample injections. To analyse the binding of the clones to human CD160, the periplasmic extracts containing the soluble Fabs were diluted to 1:5 in BIACORE P20 buffer (10 mM Hepes, 150 mM NaCl, 3 mM EDTA, 0.005% Tween-20) with a flow rate of 30 μl/min for 120 seconds for the association; the dissociation was measured for 300 seconds.
The maximum absolute response of the binding of each of these variants (expressed as measurement of arbitrary response units at time=120 seconds post-injection of the antibody) was evaluated on a surface coated with CD160 protein.

[10] = molecular target: T2, human CD160 (CD160 GPI isoform) on cells; experiment: FACS on CHO cells overexpressing hCD160, soluble Fab in periplasmic extract
Excerpt: (§4) The binding of the clones selected (from the rounds of selection on CD160 protein and on CHO-CD160 cells) as soluble Fab was also looked at by ELISA and FACS using periplasmic extracts (P.E). The binding of the soluble Fabs to the human CD160 protein, using ELISA, was detected using an anti-c-myc antibody followed by an anti-mouse HRP conjugated antibody. The binding of the soluble Fabs to the CHO cells overexpressing human CD160 was detected using an anti-c-myc antibody followed by a goat anti-mouse APC conjugated antibody. The results of the ELISA and FACS experiments using Fabs expressed at the surface of the phages or in periplasmic extracts confirmed the binding capacity of each of the affinity-matured H7 clones to human CD160.

[11] = molecular target: T1, recombinant human CD160 protein, …; experiment: phage ELISA, Fab on phage
Excerpt: as §2, §3

[12] = molecular target: T1, recombinant human CD160 protein, …; experiment: ELISA, soluble Fab in periplasmic extract
Excerpt: as §4

Binder | Phage FACS (% binding) [8] | Biacore R.U ratio (variant/FaWT 2E07) [9] | Biacore R.U ratio (variant/H7 WT) [9] | Binding response, RU arbitrary unit (at t = 120 s post-mab injection) [9] | P.E FACS (% binding) [10] | Phage ELISA O.D450 nm on biotinylated CD160 [11] | P.E ELISA O.D450 nm on biotinylated CD160 [12] | also measured
B1 |  |  |  |  |  |  |  | Kd [1]: 1.49 nM; koff [1]: 0.000744 s⁻¹; kon [1]: 499000 M⁻¹ s⁻¹; Gain in KD/respective IgG [2]: 2.9 fold; Kd [2]: 5 nM; koff [2]: 0.00123 s⁻¹; kon [2]: 244000 M⁻¹ s⁻¹; EC50, factor against H7 IgG4 (ELB01101) [3]: 10 fold; Gain in KD/respective IgG [4]: 2 fold; Kd [5]: 1.49 nM; koff [5]: 0.000744 s⁻¹; kon [5]: 499000 M⁻¹ s⁻¹; EC50 (read off the curve) [6]: ~3 nM; median fluorescence, factor against H7 IgG4 H310A-H435Q ELB01102 [7]: 2 fold
B2 | 92.1% | 1.5 fold | 3.3 fold | 20.1 RU | 1.23% | 6 OD450 | 0.148 OD450 | 
B3 | 76.4% | 1.5 fold | 3.2 fold | 19.3 RU | 1.08% | 3.63 OD450 | 0.174 OD450 | 
B4 | 86.9% | 1.2 fold | 2.6 fold | 16 RU | 1.06% | 3.46 OD450 | 0.141 OD450 | 
